test: soluble on expression in E. coli; label from the status in PepcDB or PDB records

Sequence | soluble on expression in E. coli
MAHHHHHHVDDDDKMFSTQVNSSLTSPTGRGSMAAPSLHPSLGPGIGSPGQLHSPISTLSSPINGMGPPFSVISSPMGPHSMSVPTTPTLGFSTGSPQLSSPMNPVSSSEDIKPPLGLNGVLKVPAHPSGNMASFTKHICAICGDRSSGKHYGVYSCEGCKGFFKRTVRKDLTYTCRDNKDCLIDKRQRNRCQYCRYQKCLAMGMKREAVQEERQRGKDRNENEVESTSSANEDMPVERILEAELAVEPKTETYVEANMGLNPSSPNDPVTNICQAADKQLFTLVEWAKRIPHFSELPLDDQVILLRAGWNELLIASFSHRSIAVKDGILLATGLHVHRNSAHSAGVGAIFDRVLTELVSKMRDMQMDKTELGCLRAIVLFNPDSKGLSNPAEVEALREKVYASLEAYCKHKYPEQPGRFAKLLLRLPALRSIGLKCLEHLFFFKLIGDTPIDTFLMEMLEAPHQMT | soluble
MAHPLDLNQLAQHIKQWGQSLGFQQVGICDTDLTAEEPRLQAWLDKQYHGEMAWMARHGMLRARPHELLPGTLRVISVRMNYLPAKAAFASTLNNPELGYVSRYALGRDYHKLLRQRLKKLGDQIQHYCLEQNNLDRHDLELHDLEQHDSERQGQPEQHTASEINFRPFVDSAPIMERSLAAKAGIGWVGKHSLILNRDAGSWFFLGELLIDLPLPVDKPQEEQCGRCVACMTTCPTGAIVAPYTVDARRCISYLTIELEGAIPEEFRPLMGNRIYGCDDCQLICPWNRFSQLTDEDDFSPRAVLHTPQLLDLFAWNEEKFLRVTEGSAIRRIGHLRWLRNISVALGNAPYLDSIVLALETRRGLHPMLDEHIEWAISQQLARRATQAVEVQLPQKKRLIRAIEKGLPRDA | not soluble
MAHQLLIGKGMITLNLKRIFLALTLLPLFAVAADDCALSDPTLTVQAYTVNPQTERVKMYWQKANGEAWGTLHALLADINSQGQVQMAMNGGIYDESYAPLGLYIENGQQKVALNLASGEGNFFIRPGGVFYVAGDKVGIVRLDAFKTSKEIQFAVQSGPMLMENGVINPRIHPNVASSKIRNGVGINKHGNAVFLLSQQATNFYDFACYAKAKLNVEQLLYLDGTISHMYMKGGAIPWQRYPFVTMISVERKGLEHHHHHH | not soluble
MAHRPRWTLSQVTELFEKPLLDLLFEAQQVHRQHFDPRQVQVSTLLSIKTGACPEDCKYCPQSSRYKTGLEAERLMEVEQVLESARKAKAAGSTRFCMGAAWKNPHERDMPYLEQMVQGVKAMGLEACMTLGTLSESQAQRLANAGLDYYNHNLDTSPEFYGNIITTRTYQERLDTLEKVRDAGIKVCSGGIVGLGETVKDRAGLLLQLANLPTPPESVPINMLVKVKGTPLADNDDVDAFDFIRTIAVARIMMPTSYVRLSAGREQMNEQTQAMCFMAGANSIFYGCKLLTTPNPEEDKDLQLFRKLGLNPQQTAVLAGDNEQQQRLEQALMTPDTDEYYNAAALLEHHHHHH | not soluble
MAICKVFRNYCKENDIQLHQANFSLSYDTNIPRQTGLSGSSAIVSAALNCLLDFYNVRHLIKVQVRPNIVLSAEKELGIVAGLQDRVAQVYGGLVHMDFSKEHMDKLGHGIYTPMDISLLPPLHLIYAENPSDSGKVHSMVRQRWLDGDEFIISSMKEVGSLAEEGRTALLNKDHSKLVELMNLNFDIRRRMFGDECLGAMNIEMVEVARRVGAASKFTGSGGAVVVFCPEGPSQVKLLEEECRKAGFTLQPVKIAPSCLNDSDIQTL | not soluble
MAICPELAQTDKSALANLSDETETLKNFTDEVQTSSSFSSSGGRQSSPLTSGSKLEREKQTPSLEQGDTQSELLDYKNYEKKLSKKWINYLKLKDSNFERHQPDTKLPTEITRVSDEELNALQSYCTMKINLIHRRGDSKKKTSSRHKKLHLGLDVEASERDAFSCTVPDELLNRIYFKNMRTTPKQEAAAKQHISYQCPYCNRKRAELALSAFLKQKKTLLESFLLQERIDEHLHTKDFLTRIGEAHQDFPRLSDDPRIIWKRLTEKSHIRYSGFERSETEQKMQRDGNSACHLPFSLPFLKRLTLIKPELVIVNDNV | not soluble
MAIFTDPIREHADFGPGDAEWLHLLVGDWQMVADLAFADLALWFPHPEFGYIALAHVRPSTSHTVFHADFVGEGIRSDLRPLVDKAWNSRSIERSSETSWSSEMALRVEAVPMVRNGRTLAVVTSHMDLSSSRMPSRLELTYRQCAYDLLRMGTLGLWPDFASPTGSRRGAPRVGDGLIRLDAEGIVQYASPNGVSAFRRLGEVESLEGRSLAEVTAGLLKDRRMVDETLPLVVTGRMPWRSEIESRGVSLSLRAIPLRDEQHRFGALVLCRDVSELRRREMELVTKDATIREIHHRVKNNLQTVAALLRMQSRRMVSDEAKQGLEQAMRRVATIALVHETLSQGLTQSVDFDELIGRQFRLSAEVASPSQQVRTERSGLFGELPSDFATPLALVINELVTNAVEHGLEGRTGTVWLLADRADGDGNDEFLTVTIADDGVGLPDGQYTEGLGLQIVRTLVTSELGGSIQWSPREGGGTAVEIVLNLARA | not soluble
MAIIFNPNKKIFTLQTAHTTYQMQVDRLGYLLHLYYGAKSTCDMDYVLTYADRGFSGNPYAAGMNRTYSLDTLPQEYPTLGTGDFRNIALDIKNEQGTESVELLYKSYEIRDGKYALKGLPAVWASDDEAQTLEIVLGDDIAGVEVHLLYGVLEACDVITRSVLIKNTGSGNITIEKAHAACLDMVYGDYDVIRFYGKHAMERNLERTHLGHGTLSFGSRRGTSSHQYNPAVILAQRDTTENAGDCYGMLFVYSGNFSCEAEKDQINQTRLLMGLSDELFSYPLAAGETFTVPEVIMSYSADGFSQLSHQYHTCISEHVCRSRFAHEVRPVLINSWEAAYFDFTGDTIVDLAKEAASLGIDMVVMDDGWFGKRDDDNSSLGDWFVNEKKLGGTLSELIDRVHAQGVKFGIWIEPEMVNEDSNLYREHPDWAIQIPGKLPVRSRNQLILDFSRKEVRDNIFNQICAVFDQGKIDYVKWDMNRSMADVYAGNLAYDYVLGVYDFMERLVTRYPDILLEGCSGGGGRFDAGMLYYSPQIWCSDNTDAINRTRIQYGTSFFYPVSSMGAHVSAVPNHQTGRVTSLKTRGITAMAGTFGYELNPALLSDEEKEEIREQIKTFKKYEMLINEGTYWRLTSPFEDEVAAWMSVSRTKDRALVSVVRLYAEANAAACYVKLKGLESDAVYIEENTGRQYTGAALMNAGIPLPFAVKEYEAYQFSFIRLDEAKKLYDEIKKVCGNLKLNEADTADSASDNRLEHHHHHH | soluble
MAIIRQRYQEQLDDLIKELRRLGANVYVSIENGIKSLSIDDRGFARQTVKNDKHINQLNYDINERVIMLITKQQPIASDLRMMISSLKIASDLERIGDNASSIANIRLRTKITDDYVLTRLKTMGKLAMLMLKDLDQAFKKKDTVLIREIIERDEDIDDLYSHIINATYLIDNDPFVAAQAHLAARHLERIGDHIINIAESVYFYLTGTHYEQ | not soluble
MAILAARIAVSNLHKETKKVFSDVMEDLYNYINPHNGKHSPMVAKSTLDIVLANKDRLNSAIIYDRDFSYNYFGFKTLERSYLLKINGKVAERPQHMLMRVSVGIHKEDIDAAIETYNLLSERWFTHASPTLFNAGTNRPQLSSCFLLSMKDDSIEGIYDTLKQCALISKSAGGIGVAVSCIRATGSYIAGTNGNSNGLVPMLRVYNNTARYVDQGGNKRPGAFAIYLEPWHLDIFEFLDLKKNTGKEEQRARDLFFALWIPDLFMKRVETNQDWSLMCPNECPGLDEVWGEEFEKLYASYEKQGRVRKVVKAQQLWYAIIESQTETGTPYMLYKDSCNRKSNQQNLGTIKCSNLCTEIVEYTSKDEVAVCNLASLALNMYVTSEHTYDFKKLAEVTKVVVRNLNKIIDINYYPVPEACLSNKRHRPIGIGVQGLADAFILMRYPFESAEAQLLNKQIFETIYYGALEASCDLAKEQGPYETYEGSPVSKGILQYDMWNVTPTDLWDWKVLKEKIAKYGIRNSLLIAPMPTASTAQILGNNESIEPYTSNIYTRRVLSGEFQIVNPHLLKDLTERGLWHEEMKNQIIACNGSIQSIPEIPDDLKQLYKTVWEISQKTVLKMAAERGAFIDQSQSLNIHIAEPNYGKLTSMHFYGWKQGLKTGMYYLRTRAHHHHHH | soluble
MAILGLGTDIVEISRIQAVVERTGERLARRILSPSEWQHYQQHQQPVRFLAKRFAVKEAAAKAFGTGIRNGLAFNQFEVVNDALGKPTLRLHSRAAELAVELGVKSLHVTLADERRYACATVIIES | not soluble
MAINLNTFAKVSADWYELKKSQPLAENTIKDIWRSLEKYVFPFIGTLPITQLTARHFISALEPIQASGKLETVKRVSQRINEVMDYAVNSGLIPANPAAKIRKAFQTPVKTHMLEHHHHHH | not soluble
MAKAKAAPKKSVKKVEKSPSPEDSGIRRSGRQRIEMGKYEEGFDRHELEMVLRASLNEANQQGIKVPSTSSTASASAPAPVKKEIKPKNKPAPVPVVEKKRTIPSKKERDAERKALAAAAAAAATLTSMKKAPIKKSVPSTSSEADSTTPKKKGSAVKAKKVTIKTPSSEPAELTSSAAPVPVAVPEVPTAEATTSATTTPTTTNATIVKKEETKAEQPVKKVVKKKAISKKPPTTTNVTSTSDSSAAAAAAKKKKKPVVPKLSTKPTKQYLENEKQMRLMATQKCTYKEPKSLEKRIYFIPFYSLKLAKKNDQISYLNLISFIHKNLFFNF | soluble
MAKAKTQFVCQNCGTVHNRWAGKCEGCGEWNTIVEEDPMGGIGSGPGKVPKKGRPVTLTSLSGEIEEAPRIPTGISELDRATGGGFVRGSAVLIGGDPGIGKSTLLMQAAAALSRRGHRVIYVSGEEAVAQVRLRAQRLGSADTDVLLAAETNVEDILATVSEGKRPDLIIIDSIQTLWSDTADSAPGTVTQVRTGVQAMIRFAKQTGATMVLVGHVTKEGQIAGPRVVEHMVDAVLYFEGDRGHHYRILRTVKNRFGPTDEIGVFEMSDGGLREVSNPSELFLGERNEKSPGAAVFAGIEGTRPVLVEVQALVAATSLGTPRRAVVGWDSSRLAMILAVLEAHCGVKLGQHDVYLNVAGGYRISEPAADMAIASALVSSLAGLALPADCVYFGEISLSGAVRPVAHTVQRLKEAEKLGFSAALLPSGSAELPKAGKGRWTEIESLPDLVAHIAGSGNRFKQVEDDEY | not soluble
MAKARAIVITGNGTNCEMEAAHACRLGGFDETVIAHISDILTGEIRLDDFHFLNLTGGFLDGDDLGSAKAQANRFRYARVDDLEEHLIDQIIRFIDAGKLILGVCNGFQLMTKMGLLPAVDGAYLAQTATLTFNACGRFQDRWVYLKVDQASPSIYTKGVETGLYLPIRHGEGKFVVDSPATLAAIEAKHLAVFTYSDETYSAPTMEFPLNPNGSVNAIAAVCNESGRLMGMMPHPEAFLHRTNHPRWTREDLPEEGDGLVLFRNAADYAKANLLLEHHHHHH | not soluble
MAKEIYSKYPMVKYLRKEALPTALCPGCGGGTVLNAFANAIDQLKIDPRDLVVVSGIGCSAWIASPYFLADTLHTTHGRAIAFATGVKVGLPDKYVVVISGDGDLASIGGNHLIHAARRNIDITVILVNNFIYGMTGGQVAPTTPFGAITTTTPYRNIEHPLNIAETVAAAGASYVARWTTAHVYQLIESIKKAITTKGFSLVEVISQCPVQFGRRNKMKQPAEMLRWFLKNSVPISKAKNMSEEELEGKFIVGEFVNRRKPEFVGELNKLIREVQSKFKEE | not soluble

Reference: the DeepSol protein solubility set
